Laboratory results published in paper PMC12840758.

Molecular target: T1, MtbCspB (cold shock protein CspB) (Mycobacterium tuberculosis H37Rv) (UniProt I6WZM9)
T1 sequence: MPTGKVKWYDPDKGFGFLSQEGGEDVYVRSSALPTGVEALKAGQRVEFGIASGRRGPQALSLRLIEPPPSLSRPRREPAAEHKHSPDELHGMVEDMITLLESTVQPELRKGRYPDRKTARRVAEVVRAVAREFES
Assay: SPR
Conditions: […] (or 250 mM) NaCl, 10 mM MgCl2, 0.05% Tween-20, temperature not stated

Substance | Kd [nM]
GUGGUCAGUCGAGUGGUUUUUU [oligoU RNA] | 18.8
MTS0997 sRNA (Mcr11, ncRv1264Ac) | 0.112
MTS1338 sRNA (DrrS, ncRv11733) | 0.296
